Results as given in IntAct's records for PubMed 19666511.

B1: GTP-binding protein YPT32/YPT11 (Saccharomyces cerevisiae), P51996 (parent)
chain: MSNEDYGYDYDYLFKIVLIGDSGVGKSNLLSRFTTDEFNIESKSTIGVEFATRTIEVENKKIKAQIWDTAGQERYRAITSAYYRGAVGALIVYDISKSSSYENCNHWLTELRENADDNVAVGLIGNKSDLAHLRAVPTDEAKNFAMENQMLFTETSALNSDNVDKAFRELIVAIFQMVSKHQVDLSGSGTNNMGSNGAPKGPTISLTPAPKEDKKKKSSNCC
partner: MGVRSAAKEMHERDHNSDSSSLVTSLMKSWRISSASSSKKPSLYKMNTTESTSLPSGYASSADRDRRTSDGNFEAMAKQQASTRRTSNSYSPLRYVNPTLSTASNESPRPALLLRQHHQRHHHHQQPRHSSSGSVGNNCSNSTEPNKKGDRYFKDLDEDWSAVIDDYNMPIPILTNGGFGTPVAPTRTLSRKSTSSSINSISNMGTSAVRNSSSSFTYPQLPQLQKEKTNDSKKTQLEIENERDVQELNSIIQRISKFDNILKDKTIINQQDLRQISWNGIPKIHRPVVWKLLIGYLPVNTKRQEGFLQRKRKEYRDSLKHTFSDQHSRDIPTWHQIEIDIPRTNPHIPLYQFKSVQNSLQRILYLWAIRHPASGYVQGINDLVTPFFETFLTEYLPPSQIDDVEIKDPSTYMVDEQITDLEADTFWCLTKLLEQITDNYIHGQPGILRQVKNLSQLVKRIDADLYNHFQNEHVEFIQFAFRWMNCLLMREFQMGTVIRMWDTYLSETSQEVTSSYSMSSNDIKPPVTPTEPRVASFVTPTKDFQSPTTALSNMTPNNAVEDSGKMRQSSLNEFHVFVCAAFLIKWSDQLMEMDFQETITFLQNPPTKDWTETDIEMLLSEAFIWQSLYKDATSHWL

Variants of: B1
Conditions: with gyp1_yeast GYP1, Q08484

effect of a mutation on the interaction	Variant
disrupting interaction	S27N
